The values that follow come from patent US20210363245A1.

Where two headings read alike, the source gives them in different places.

Holding throughout (test): cell-based or functional assay
In assay [1] the target is CD19 (UniProt P15391).
The target of assay [2] is CD20 (human) (UniProt P11836).
Assay [3] concerns the target CD19 (UniProt P15391). This is another data set of the same source.
Assay [4] has as its target CD20 (human) (UniProt P11836). This is another data set of the same source.
The target of assay [5] is CD19 (UniProt P15391). The source holds these as a separate data set.
For assay [6], the target named is CD20 (human) (UniProt P11836). The source holds these as a separate data set.
Assay [7] addresses CD19 (UniProt P15391). The source holds these as a separate data set.
The target of assay [8] is CD20 (human) (UniProt P11836). The source holds these as a separate data set.

Chain of UniProt P15391 (P15391 20-556 limits assumed): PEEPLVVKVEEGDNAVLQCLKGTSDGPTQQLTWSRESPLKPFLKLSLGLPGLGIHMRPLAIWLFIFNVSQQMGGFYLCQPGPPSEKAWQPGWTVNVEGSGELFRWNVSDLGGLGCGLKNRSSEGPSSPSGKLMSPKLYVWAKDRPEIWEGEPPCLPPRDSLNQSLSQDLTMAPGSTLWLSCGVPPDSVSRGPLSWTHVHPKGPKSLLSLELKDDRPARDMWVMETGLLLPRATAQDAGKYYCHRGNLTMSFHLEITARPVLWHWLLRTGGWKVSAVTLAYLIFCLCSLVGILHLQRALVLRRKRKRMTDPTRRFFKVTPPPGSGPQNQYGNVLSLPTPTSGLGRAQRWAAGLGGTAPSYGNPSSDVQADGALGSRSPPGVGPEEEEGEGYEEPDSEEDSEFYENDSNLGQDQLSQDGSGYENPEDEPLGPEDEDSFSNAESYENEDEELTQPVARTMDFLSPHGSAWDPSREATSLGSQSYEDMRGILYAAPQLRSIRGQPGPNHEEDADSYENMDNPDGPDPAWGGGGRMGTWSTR
Chain of UniProt P11836 (P11836 whole entry): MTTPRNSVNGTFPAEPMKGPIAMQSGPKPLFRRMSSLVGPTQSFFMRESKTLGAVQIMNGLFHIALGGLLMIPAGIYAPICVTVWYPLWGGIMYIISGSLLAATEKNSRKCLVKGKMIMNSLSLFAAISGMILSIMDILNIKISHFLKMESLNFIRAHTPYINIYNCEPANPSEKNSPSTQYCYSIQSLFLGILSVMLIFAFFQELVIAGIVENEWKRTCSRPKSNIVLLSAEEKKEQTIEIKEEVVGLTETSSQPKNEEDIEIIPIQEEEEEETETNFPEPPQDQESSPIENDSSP

In assay [1], Hu19-CD828Z had an IFNγ release (ELISA), overnight co-culture with CD19-K562 of 31900 pg/mL; an IFNγ release (ELISA), overnight co-culture with Nalm6 of 5700 pg/mL; an IFNγ release (ELISA), overnight co-culture with ST486 of 3610 pg/mL; an IFNγ release (ELISA), overnight co-culture with SU-DHL-4 of 5190 pg/mL. The same substance had an IFNγ release (ELISA), overnight co-culture with Toledo in assay [1] of 6470 pg/mL. In addition, the IFNγ release (ELISA), overnight co-culture with CD20-K562 in assay [2] amounted to 21 pg/mL. Besides, in assay [3], the IFNγ release (ELISA), overnight co-culture with CD19-K562 is 13300 pg/mL; the IFNγ release (ELISA), overnight co-culture with Nalm6 stood at 6520 pg/mL; the IFNγ release (ELISA), overnight co-culture with ST486 stood at 1430 pg/mL. The substance further gave an IFNγ release (ELISA), overnight co-culture with CD20-K562 in assay [4] of 808 pg/mL. Further, the IFNγ release (ELISA), overnight co-culture with CD19-K562 in assay [5] is 13900 pg/mL. This substance came in with an IFNγ release (ELISA), overnight co-culture with CD20-K562 in assay [6] of 118 pg/mL. In addition, in assay [7], the IFNγ release (ELISA), overnight co-culture with CD19-K562 is 21200 pg/mL; the IFNγ release (ELISA), overnight co-culture with Nalm6 is 6940 pg/mL; the IFNγ release (ELISA), overnight co-culture with ST486 was determined as 745 pg/mL; the IFNγ release (ELISA), overnight co-culture with SU-DHL-4 was found to be 2280 pg/mL. For the same substance, in assay [7], the IFNγ release (ELISA), overnight co-culture with Toledo was 4570 pg/mL; the IL-2 release (ELISA), overnight co-culture with CD19-K562 is 616 pg/mL; the IL-2 release (ELISA), overnight co-culture with Nalm6 is 111 pg/mL; the IL-2 release (ELISA), overnight co-culture with ST486 was under 16 pg/mL. Also, in assay [7], the IL-2 release (ELISA), overnight co-culture with SU-DHL-4 was under 16 pg/mL and the IL-2 release (ELISA), overnight co-culture with Toledo amounted to 55 pg/mL. In assay [8], this substance displayed an IFNγ release (ELISA), overnight co-culture with CD20-K562 of 43 pg/mL and an IL-2 release (ELISA), overnight co-culture with CD20-K562 of under 16 pg/mL.
As to C2B8-CD828Z, in assay [1], the IFNγ release (ELISA), overnight co-culture with CD19-K562 was found to be 55 pg/mL. In assay [2], this substance gave an IFNγ release (ELISA), overnight co-culture with CD20-K562 of 36500 pg/mL; an IFNγ release (ELISA), overnight co-culture with Nalm6 of 800 pg/mL; an IFNγ release (ELISA), overnight co-culture with ST486 of 9070 pg/mL; an IFNγ release (ELISA), overnight co-culture with Toledo of 6590 pg/mL. In assay [7], the IFNγ release (ELISA), overnight co-culture with CD19-K562 turned out to be 1050 pg/mL and the IL-2 release (ELISA), overnight co-culture with CD19-K562 is under 16 pg/mL. In assay [8], this substance gave an IFNγ release (ELISA), overnight co-culture with CD20-K562 of 56700 pg/mL; an IFNγ release (ELISA), overnight co-culture with Nalm6 of 1290 pg/mL; an IFNγ release (ELISA), overnight co-culture with ST486 of 14300 pg/mL; an IFNγ release (ELISA), overnight co-culture with Toledo of 7770 pg/mL. In addition, in assay [8], the IL-2 release (ELISA), overnight co-culture with CD20-K562 was determined as 4620 pg/mL; the IL-2 release (ELISA), overnight co-culture with Nalm6 was under 16 pg/mL; the IL-2 release (ELISA), overnight co-culture with ST486 was 215 pg/mL; the IL-2 release (ELISA), overnight co-culture with Toledo was found to be 104 pg/mL.
Human IgG (antibody): in assay [8], the IFNγ release by Hu1928-2.1.2BB T cells with ST486 CD19-/- cells, human IgG at 0 ug/ml was 6490 pg/mL; the IFNγ release by Hu1928-2.1.2BB T cells with ST486 CD19-/- cells, human IgG at 6.2 ug/ml came out at 5840 pg/mL; the IFNγ release by Hu1928-2.1.2BB T cells with ST486 CD19-/- cells, human IgG at 12.5 ug/ml was 5590 pg/mL; the IFNγ release by Hu1928-2.1.2BB T cells with ST486 CD19-/- cells, human IgG at 25 ug/ml was determined as 5470 pg/mL. In assay [8], this substance had an IFNγ release by Hu1928-2.1.2BB T cells with ST486 CD19-/- cells, human IgG at 50 ug/ml of 6510 pg/mL and an IFNγ release by Hu1928-2.1.2BB T cells with ST486 CD19-/- cells, human IgG at 100 ug/ml of 5920 pg/mL.
